Data published in US20210171647A1 (WUXI BIOLOGICS SHANGHAI, published 2021).

What was measured:
Assay in all cases: ELISA, antibody coated, OX40-ECD.His mutant supernatant; relative to silent alanine substitutions;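 also: captured OX40 mutant protein detected with HRP-labelled anti-His antibody, absorbance read-out, scaled to the mean signal of control mutants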
human OX40-ECD.His R65A = target: T1, human OX40-ECD.His R65A (human, UniProt P43489 29-214)
T1 construct: extracellular domain; not shown: C-terminal His-tag
T1 sequence (looked up): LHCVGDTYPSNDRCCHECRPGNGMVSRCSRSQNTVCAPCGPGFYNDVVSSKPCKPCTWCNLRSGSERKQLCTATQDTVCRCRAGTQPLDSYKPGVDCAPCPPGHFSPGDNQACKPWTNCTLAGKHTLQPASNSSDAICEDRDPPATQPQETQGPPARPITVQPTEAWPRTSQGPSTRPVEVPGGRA

human OX40-ECD.His D168A = target: T2, human OX40-ECD.His D168A (human, UniProt P43489 29-214)
T2 construct: extracellular domain; not shown: C-terminal His-tag
T2 sequence (looked up): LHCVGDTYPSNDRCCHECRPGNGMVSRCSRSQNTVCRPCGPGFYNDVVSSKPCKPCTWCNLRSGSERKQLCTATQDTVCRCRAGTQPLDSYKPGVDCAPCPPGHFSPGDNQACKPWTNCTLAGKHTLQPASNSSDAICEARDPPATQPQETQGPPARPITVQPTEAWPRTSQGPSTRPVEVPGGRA

human OX40-ECD.His D137A = target: T3, human OX40-ECD.His D137A (human, UniProt P43489 29-214)
T3 construct: extracellular domain; not shown: C-terminal His-tag
T3 sequence (looked up): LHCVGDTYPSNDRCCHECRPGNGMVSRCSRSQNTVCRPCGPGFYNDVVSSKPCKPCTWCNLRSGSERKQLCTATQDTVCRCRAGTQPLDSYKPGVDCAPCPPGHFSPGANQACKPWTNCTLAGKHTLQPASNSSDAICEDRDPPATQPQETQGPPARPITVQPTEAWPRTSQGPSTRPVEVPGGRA

human OX40-ECD.His P48A = target: T4, human OX40-ECD.His P48A (human, UniProt P43489 29-214)
T4 construct: extracellular domain; not shown: C-terminal His-tag
T4 sequence (looked up): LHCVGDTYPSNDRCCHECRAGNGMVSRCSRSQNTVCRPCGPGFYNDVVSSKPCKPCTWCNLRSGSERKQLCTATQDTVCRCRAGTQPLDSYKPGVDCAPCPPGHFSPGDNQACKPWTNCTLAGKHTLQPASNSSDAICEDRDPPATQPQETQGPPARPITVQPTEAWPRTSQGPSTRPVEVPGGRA

human OX40-ECD.His N138A = target: T5, human OX40-ECD.His N138A (human, UniProt P43489 29-214)
T5 construct: extracellular domain; not shown: C-terminal His-tag
T5 sequence (looked up): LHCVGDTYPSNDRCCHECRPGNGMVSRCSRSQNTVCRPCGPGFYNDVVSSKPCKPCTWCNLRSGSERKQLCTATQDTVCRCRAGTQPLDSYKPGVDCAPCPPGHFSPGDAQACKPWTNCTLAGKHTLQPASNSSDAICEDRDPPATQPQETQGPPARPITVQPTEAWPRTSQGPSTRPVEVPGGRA

human OX40-ECD.His R41A = target: T6, human OX40-ECD.His R41A (human, UniProt P43489 29-214)
T6 construct: extracellular domain; not shown: C-terminal His-tag
T6 sequence (looked up): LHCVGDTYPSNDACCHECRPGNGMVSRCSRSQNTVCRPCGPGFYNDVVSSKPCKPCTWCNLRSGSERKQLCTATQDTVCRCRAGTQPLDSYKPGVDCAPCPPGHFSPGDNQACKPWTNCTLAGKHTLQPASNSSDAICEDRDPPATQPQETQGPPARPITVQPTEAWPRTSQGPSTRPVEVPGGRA

human OX40-ECD.His V63A = target: T7, human OX40-ECD.His V63A (human, UniProt P43489 29-214)
T7 construct: extracellular domain; not shown: C-terminal His-tag
T7 sequence (looked up): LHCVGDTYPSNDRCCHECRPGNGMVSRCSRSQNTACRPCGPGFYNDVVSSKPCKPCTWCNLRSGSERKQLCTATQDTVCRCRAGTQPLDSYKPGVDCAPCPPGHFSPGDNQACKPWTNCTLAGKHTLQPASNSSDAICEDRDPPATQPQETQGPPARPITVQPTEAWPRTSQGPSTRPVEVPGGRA

human OX40-ECD.His N50A = target: T8, human OX40-ECD.His N50A (human, UniProt P43489 29-214)
T8 construct: extracellular domain; not shown: C-terminal His-tag
T8 sequence (looked up): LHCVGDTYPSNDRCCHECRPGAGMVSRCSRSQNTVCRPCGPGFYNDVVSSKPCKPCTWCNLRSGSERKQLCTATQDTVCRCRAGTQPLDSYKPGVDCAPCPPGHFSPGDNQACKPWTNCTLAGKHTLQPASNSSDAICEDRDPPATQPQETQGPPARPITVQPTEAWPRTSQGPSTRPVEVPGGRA

human OX40-ECD.His L155A = target: T9, human OX40-ECD.His L155A (human, UniProt P43489 29-214)
T9 construct: extracellular domain; not shown: C-terminal His-tag
T9 sequence (looked up): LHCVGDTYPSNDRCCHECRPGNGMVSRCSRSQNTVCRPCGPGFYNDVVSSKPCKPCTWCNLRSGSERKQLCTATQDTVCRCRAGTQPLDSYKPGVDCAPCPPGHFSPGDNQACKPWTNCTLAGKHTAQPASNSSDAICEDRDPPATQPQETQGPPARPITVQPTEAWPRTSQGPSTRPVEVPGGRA

human OX40-ECD.His R108A = target: T10, human OX40-ECD.His R108A (human, UniProt P43489 29-214)
T10 construct: extracellular domain; not shown: C-terminal His-tag
T10 sequence (looked up): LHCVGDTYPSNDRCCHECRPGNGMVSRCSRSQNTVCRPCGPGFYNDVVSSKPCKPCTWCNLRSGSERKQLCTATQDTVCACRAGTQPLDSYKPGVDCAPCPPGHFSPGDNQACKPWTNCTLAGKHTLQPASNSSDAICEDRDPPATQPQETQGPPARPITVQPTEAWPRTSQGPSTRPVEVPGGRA

B1: 1.134.9-u1-IgG1L (antibody, V domains shown)
VH: QVQLQESGPGLVKPSGTLSLTCAVSGGSISSYNWWSWVRQPPGKGLEWIGEIYHGGNTNYNPSLKSRVTMSVDNSKNQFSLKLSSVTAADTAVYYCARAPGDWGGSPYFDFWGQGTLVTVSS
VL: SSELTQDPAVSVALGQTVRITCQGDNLRTYYASWYQQKPGQAPILLIYGRNKRPSGIPDRFSGSSSGNTASLTITGAQAEDEAAYYCNSRDSSGNPVVFGGGTKLTVL
notes: fully human IgG1, lambda
- Fold Change (human OX40-ECD.His R65A): 0.996
- Fold Change (human OX40-ECD.His D168A): 0.983
- Fold Change (human OX40-ECD.His D137A): 0.851
- Fold Change (human OX40-ECD.His P48A): 0.981
- Fold Change (human OX40-ECD.His N138A): 0.73
- Fold Change (human OX40-ECD.His R41A): 0.958
- Fold Change (human OX40-ECD.His V63A): 0.886
- Fold Change (human OX40-ECD.His N50A): 0.961
- Fold Change (human OX40-ECD.His L155A): 0.959
- Fold Change (human OX40-ECD.His R108A): 0.981
